Measured values from publication PMC5216932.

Molecular target: Fas/CD95 (human (endogenous in U-2 OS)) (UniProt P25445)
Sequence of UniProt P25445 (P25445 26-335): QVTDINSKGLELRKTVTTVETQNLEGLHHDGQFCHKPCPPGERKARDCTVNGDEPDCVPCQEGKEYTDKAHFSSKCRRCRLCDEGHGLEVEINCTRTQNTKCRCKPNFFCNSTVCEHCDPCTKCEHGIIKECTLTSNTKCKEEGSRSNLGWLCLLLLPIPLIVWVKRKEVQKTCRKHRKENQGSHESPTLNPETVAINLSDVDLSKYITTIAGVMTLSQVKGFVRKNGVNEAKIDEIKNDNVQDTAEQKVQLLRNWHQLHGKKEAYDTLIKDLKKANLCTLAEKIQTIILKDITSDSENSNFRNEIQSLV

Q: With Fas ligand (from UniProt P48023 1-281) as the substance, how does the U-2 OS cell death with no granzyme-B FRET signal change in co-culture with primary NK cells (3-day cultured in IL-2), with 1.5 μg/ml anti-Fas neutralizing antibody (clone ZB4); control about 65% read?
A: 28%
